Experimental data published in the supplement of paper PMC9170038.

Key:
MS2 coat protein [1] = test: apparent KD of MS2 coat protein, switch ON state; designed switch direction (-1 OFF switch, 1 ON switch): -1; higher = weaker reporter binding; settings: FMN input: 0 or 200 uM; Eterna round: R93 (includes R88 designs)
Outline: (§1)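 Designed RNA switches, transcribed on-chip from Illumina sequencing clusters, were titrated with SNAP-549-labelled MS2 coat protein from 0.7 or 1.5 nM to 3 µM in twofold steps. The solution was 100 mM Tris-HCl pH 7.5, 80 mM KCl, 4 mM MgCl2, with constant ligand or without it. Apparent KD is the median over each design's normalised cluster binding-curve fits.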

MS2 coat protein [2] = test: apparent KD of MS2 coat protein, switch OFF state (with FMN for OFF switches, without FMN for ON switches); designed switch direction (-1 OFF switch, 1 ON switch): -1; higher = weaker reporter binding; settings: FMN input: 0 or 200 uM; Eterna round: R93 (includes R88 designs)
Outline: as §1

Sequence	apparent KD of MS2 coat protein (MS2 coat protein [1]) [nM]	apparent KD of MS2 coat protein (MS2 coat protein [2]) [nM]
AGGGAACAUGAGGAUCACCCAUGUGAGGAUAUGCUAUGGAAAUAAAAAAUAAAACAUAGCAGAAGGCAUAAAAA [Mat - Exclusion 1 - Eli mod - D39]	47.6	46.1
AGUAUCACAGGAUAUACAUAGGUGAAAAAAGUAAAUCCACUACAUGAGGAUCACCCAUGUAGAAGGGUGAUACA [Ex2 Design 177: Random 4B]	69.9	62.2
AGUCCAGAAGGAUAUACAUAGGUGAAAAAAAAAAAAAAACUACAUGAGGAUCACCCAUGUAGAAGGUCUGGACA [Mod of Brourd]	58.6	25.5
AGUCGGCGAGGAUAUACAUGAGGAUCACCCAUGUGAGAGAAAAAAGUGAGUUAGACAUGUAGAAGGCGCUGACA [JL Lego Mod 8]	54	26.8
AGUCUGAGAGGAUAUACAUGGGAAAAAAAAGUAAGAUCCCUACAUGAGGAUCACCCAUGUAGAAGGCUCUGACA [Ex2 Design 143: Sub-opt 7]	27.4	17.9
AGUUGGCGAGGAUAUACAUGAGGAUCACCCAUGUGAAAGAAAAACUCGAAAGAGAAAAGUAGAAGGCGCUGACA [Mat - Exclusion 3 - Eli mod - D93]	16.8	37.6
AGUUGGCGAGGAUAUACAUGAGGAUCACCCAUGUGAGAGAAAAAAGUGAGAAAGAAAUGUAGAAGGCGCUCACA [JL Lego Mod 13]	62.8	37.5
AGUUGGCGAGGAUAUACAUGAGGAUCACCCAUGUGAGAGAAUAAAGUGAGAAAGAAAAGUAGAAGGCGCUCACA [JL Lego Mod 16]	60.3	45.1
AUAAAUCGAGGAUAUACAUGAGGAUCACCCAUGUAAAAAAAAAAAAAAUCCUCAGGAAGUAGAAGGCGAAAUAA [JR_Exc003_Sub018]	11.7	23.3
AUAAAUCGAGGAUAUACAUGAGGAUCACCCAUGUAAAUAAAUAAAUAAUCCUCAGGAAGUAGAAGGCGAAAUAA [JR_Exc003_Sub019]	15.1	27.2
AUAAGUGCAGGAUAUACAAAAUGCUAGCGAAAGCUAGCAUAACAUGAGGAUCACCCAUGUAGAAGGGCACAAUA [Tetraloop hairpin BlockHead... 61% 1]	23.5	18.4
AUAGGCCAAGGAUAUACAUGAGGAUCACCCAUGUAAAUAACUCGAUCAAAAUAAACAAGUAGAAGGUGGAAUAA [JR_Exc003_Sub204]	25.1	29.4
AUAGGCCUAGGAUAUACAUGAGGAUCACCCAUGUAAACCGAUAGAUCACGGUAAACGUGUAGAAGGAGGAAUAA [JR_Exc003_Sub207]	24.4	20.6
AUAGGCCUAGGAUAUACAUGAGGAUCACCCAUGUAAAUAAAUCGAUCAAAAUAAACGUGUAGAAGGAGGAAUAA [JR_Exc003_Sub205]	33.5	38.3
AUCAUGUAAGGAUAUAAAAGAAAAGAAAAGAAAGAAAAGAAUUAGAAGGUACAUGAGGAUCACCCAUGUAAGAA [EteRNA is fun!]	30.3	17.9
AUCAUGUUAGGAUAUAUAAGAAAAGAAAAGAAAGAAAAGAAAUAGAAGGAACAUGAGGAUCACCCAUGUAAGAA [EteRNA is fun!]	17.5	23.1

Sequence	apparent KD of MS2 coat protein (MS2 coat protein [1]) [nM]	apparent KD of MS2 coat protein (MS2 coat protein [2]) [nM]
AUCGAUCGAGGAUAUACAUGAGGAUCACCCAUGUAAAAAAAAAAAAAGGCCUCAGGACGUAGAAGGCGACGCAA [JR_Exc003_Sub402]	16.3	22.6
AUCUACCUAGGAUAUACAUGAGGAUCACCCAUGUACAGAUACAACUAGGGAAACACACGUAGAAGGAGGUAGAU [JR_Exc003_Sub1207]	15.6	37.3
AUUAUGUAAGGAUAUGUACGAACAACAAAACAAAUAACGGUACAGAAGGUACAUGAGGAUCACCCAUGUAUAAA [May 71]	23.6	21.4
CAGUACUGAGGAUAUACAUGAGGAUCACCCAUGUAUUCCAGCUAGGAAACUAGCAAAUGUAGAAGGCAGUACUG [Ex3: 825]	14	14.8
CCAAGACAUGAGGAUCACCCAUGUGAGGAUAUAGGUGUAUGCAAAAAAAAGUUAAAAACUAGAAGGCACAGAAA [JR_Exc001_Sub306]	30.7	25
CGCAAGUCAGGAUAUUCGACAGGUAAAUCAGUGGAUCAGAAGGAGAAGGGACAUGAGGAUCACCCAUGUAUGUA [JR_Exc004_Sub407]	49.4	23.1
CUCAAGUAAGGAUAUGUAAGAAAAGAAGAGAAAGAAAAGAAACAGAAGGUACAUGAGGAUCACCCAUGUAAGAA [EteRNA is fun!]	30.4	28.2
CUCAAGUGAGGAUAUACGAAUAGUAAGUAAGUAUAACAGACGUAGAAGGCACAUGAGGAUCACCCAUGUAAAUA [JR_Exc004_Sub303]	36.2	28
CUCAAGUGAGGAUAUCAGUAGUAAAAAAAUAAAAUUACUACUGAGAAGGCACAUGAGGAUCACCCAUGUGUCUU [EX4 333: Super Stable 33]	14.1	11.1
CUCGUGUCAGGAUAUGGAAGGCCGUUUGAUUAACGAGGGUACUAGAAGGGACAUGAGGAUCACCCAUGUAAAAA [Maonis]	81.5	90.4
CUCUUGUCAGGAUAUCUAAGAAAAGAAAAGAAAGAAAAGAAAGAGAAGGGACAUGAGGAUCACCCAUGUAAGAA [EteRNA is fun!]	46.3	42.4
CUCUUGUCAGGAUAUUGAAGAAAAGAAGAGAAAGAAAAGAACAAGAAGGGACAUGAGGAUCACCCAUGUAAGAA [EteRNA is fun!]	61.8	66.7
CUCUUGUGAGGAUAUUGAAGAAAAGAAGAGAAAGAAAAGAACAAGAAGGCACAUGAGGAUCACCCAUGUAAGAA [EteRNA is fun!]	37.9	44.2
CUUGUGUGAGGAUAUGUAAAAUGAAUAAGCAGUUCUAAAAGGCAGAAGGUACAUGAGGAUCACCCAUGUGAAAA [Inza]	39.3	49.8
GAAAACAGAGGAUAUACAAAAUUGACACGAAAGGUGCAAAAACAUGAGGAUCACCCAUGUAGAAGGCUGAAGAA [Meechl MS2 Ex2 3]	25.3	21.1
